According to patent US20160193299A1, “MODIFIED NUCLEOSIDE, NUCLEOTIDE, AND NUCLEIC ACID COMPOSITIONS” (Moderna Therapeutics, Inc., priority 2011, published 2016):

Key:
reticulocytes = assay: Example 22 non-human primate study, reticulocyte count; assay type: in vivo, cynomolgus monkey
Procedure: (§1) LNP formulations, shown in Table 31 (above), were administered to non-human primates (NHP) (cynomolgus monkey) (n=2) as intravenous injection (IV). The NHP were administered a single modified mRNA IV dose of 0.5 mg/kg, 0.05 mg/kg or 0.005 mg/kg of G-CSF or EPO in a dose volume of 0.5 mL/kg. The NHPs were bled before dosing with the modified mRNA LNP formulations to determine protein expression in the serum and a baseline complete blood count. After administration with the G-CSF modified mRNA formulation the NHP were bled at 8, 24, 48 and 72 hours to determined protein expression. After administration with the EPO modified mRNA formulation the NHP were bled at 8, 24, 48, 72 hours and 7 days to determined protein expression.
Samples collected from the NHPs after they were administered with G-CSF or EPO modified mRNA formulations were analyzed by ELISA to determine protein expression. Neutrophil and reticulocyte count was also determined pre-dose, 24 hours, 3 days, 7 days, 14 days and 18 days after administration of the modified G-CSF or EPO formulation.

[1] = test system: aspartate transaminase (AST); assay: Example 22 non-human primate study, serum chemistry aspartate transaminase (AST); assay type: in vivo, cynomolgus monkey
Procedure: as §1

human G-CSF = assay: Example 32B human G-CSF modified RNA lipoplex IM/SC/IV, serum human G-CSF ELISA; assay type: in vivo, C57/BL6 mice; conditions: I.M., 100 μg, lipoplexed with 30% RNAIMAX, serum 6 hours
Procedure: 6 hours after administration of a formulation, serum was collected from each mouse to measure the amount of human G-CSF protein in the mouse serum by human G-CSF ELISA and the results are shown in Table 54.

HEK293 = assay: Example 46B percent-modified G-CSF mRNA transfected in HEK293, secreted G-CSF ELISA; assay type: cell-based, human
Procedure: Human embryonic kidney epithelial (HEK293) cells were seeded on 96-well plates at a density of 30,000 cells per well in 100 ul cell culture medium. 250 ng of modified G-CSF mRNA (SEQ ID NO: 6; polyA tail of approximately 160 nucleotides not shown in sequence; 5′cap, Cap1) formulated with RNAiMAX™ (Invitrogen, Carlsbad, Calif.) was added to a well. The G-CSF was completely modified with 5mC and pseudoU (100% modification), not modified with 5mC and pseudoU (0% modification) or was partially modified with 5mC and pseudoU so the mRNA would contain 75% modification, 50% modification or 25% modification. Control samples (AK 5/2, mCherry (SEQ ID NO: 7; polyA tail of approximately 160 nucleotides not shown in sequence; 5′cap, Cap1; fully modified 5mC and pseudoU) and untreated) were also analyzed. […] The supernatants were harvested after 16 hours and the secreted G-CSF protein was analyzed by ELISA.

B1: G-CSF: human G-CSF mRNA SEQ ID NO: 6, polyA ~160 nt, Cap1, fully modified with 5-methylcytosine and pseudouridine (nucleic acid, listed as Homo sapiens)
chain: GGGAAAUAAGAGAGAAAAGAAGAGUAAGAAGAAAUAUAAGAGCCACCAUGGCCGGUCCCGCGACCCAAAGCCCCAUGAAACUUAUGGCCCUGCAGUUGCUGCUUUGGCACUCGGCCCUCUGGACAGUCCAAGAAGCGACUCCUCUCGGACCUGCCUCAUCGUUGCCGCAGUCAUUCCUUUUGAAGUGUCUGGAGCAGGUGCGAAAGAUUCAGGGCGAUGGAGCCGCACUCCAAGAGAAGCUCUGCGCGACAUACAAACUUUGCCAUCCCGAGGAGCUCGUACUGCUCGGGCACAGCUUGGGGAUUCCCUGGGCUCCUCUCUCGUCCUGUCCGUCGCAGGCUUUGCAGUUGGCAGGGUGCCUUUCCCAGCUCCACUCCGGUUUGUUCUUGUAUCAGGGACUGCUGCAAGCCCUUGAGGGAAUCUCGCCAGAAUUGGGCCCGACGCUGGACACGUUGCAGCUCGACGUGGCGGAUUUCGCAACAACCAUCUGGCAGCAGAUGGAGGAACUGGGGAUGGCACCCGCGCUGCAGCCCACGCAGGGGGCAAUGCCGGCCUUUGCGUCCGCGUUUCAGCGCAGGGCGGGUGGAGUCCUCGUAGCGAGCCACCUUCAAUCAUUUUUGGAAGUCUCGUACCGGGUGCUGAGACAUCUUGCGCAGCCGUGAAGCGCUGCCUUCUGCGGGGCUUGCCUUCUGGCCAUGCCCUUCUUCUCUCCCUUGCACCUGUACCUCUUGGUCUUUGAAUAAAGCCUGAGUAGGAAG
modifications: polyA ~160, Cap1, 5mC/pseudouridine modified
Reticulocyte count (reticulocytes; Table 39, Female NHP, 0.05 mg/kg, 3 days): 0.061 10^12/L
Reticulocyte count (reticulocytes; Table 39, Female NHP, 0.05 mg/kg, 7 days): 0.094 10^12/L
Reticulocyte count (reticulocytes; Table 39, Female NHP, 0.05 mg/kg, Pre-dose): 0.049 10^12/L
Reticulocyte count (reticulocytes; Table 39, Female NHP, 0.5 mg/kg, 14/18 days): 0.071 10^12/L
Reticulocyte count (reticulocytes; Table 39, Female NHP, 0.5 mg/kg, 24 hours): 0.046 10^12/L
Reticulocyte count (reticulocytes; Table 39, Female NHP, 0.5 mg/kg, 3 days): 0.017 10^12/L
Reticulocyte count (reticulocytes; Table 39, Female NHP, 0.5 mg/kg, 7 days): 0.021 10^12/L
Reticulocyte count (reticulocytes; Table 39, Female NHP, 0.5 mg/kg, Pre-dose): 0.055 10^12/L
Reticulocyte count (reticulocytes; Table 39, Male NHP, 0.005 mg/kg, 14/18 days): 0.069 10^12/L
Reticulocyte count (reticulocytes; Table 39, Male NHP, 0.005 mg/kg, 24 hours): 0.037 10^12/L
Reticulocyte count (reticulocytes; Table 39, Male NHP, 0.005 mg/kg, 3 days): 0.037 10^12/L
Reticulocyte count (reticulocytes; Table 39, Male NHP, 0.005 mg/kg, 7 days): 0.046 10^12/L
Reticulocyte count (reticulocytes; Table 39, Male NHP, 0.005 mg/kg, Pre-dose): 0.037 10^12/L
Reticulocyte count (reticulocytes; Table 39, Male NHP, 0.05 mg/kg, 14/18 days): 0.107 10^12/L
Reticulocyte count (reticulocytes; Table 39, Male NHP, 0.05 mg/kg, 24 hours): 0.048 10^12/L
Reticulocyte count (reticulocytes; Table 39, Male NHP, 0.05 mg/kg, 3 days): 0.101 10^12/L
Reticulocyte count (reticulocytes; Table 39, Male NHP, 0.05 mg/kg, 7 days): 0.157 10^12/L
Reticulocyte count (reticulocytes; Table 39, Male NHP, 0.05 mg/kg, Pre-dose): 0.055 10^12/L
Reticulocyte count (reticulocytes; Table 39, Male NHP, 0.5 mg/kg, 14/18 days): 0.029 10^12/L
Reticulocyte count (reticulocytes; Table 39, Male NHP, 0.5 mg/kg, 24 hours): 0.032 10^12/L
Reticulocyte count (reticulocytes; Table 39, Male NHP, 0.5 mg/kg, 3 days): 0.041 10^12/L
Reticulocyte count (reticulocytes; Table 39, Male NHP, 0.5 mg/kg, 7 days): 0.009 10^12/L
Reticulocyte count (reticulocytes; Table 39, Male NHP, 0.5 mg/kg, Pre-dose): 0.067 10^12/L
AST ([1]; Female NHP, 0.005 mg/kg, 2 days): 34 U/L
AST ([1]; Female NHP, 0.005 mg/kg, 4 days): 36 U/L
AST ([1]; Female NHP, 0.005 mg/kg, 7 days): 31 U/L
AST ([1]; Female NHP, 0.005 mg/kg, 14 days): 20 U/L
AST ([1]; Female NHP, 0.005 mg/kg, Pre-dose): 54 U/L
AST ([1]; Female NHP, 0.05 mg/kg, 2 days): 34 U/L
AST ([1]; Female NHP, 0.05 mg/kg, 4 days): 42 U/L
AST ([1]; Female NHP, 0.05 mg/kg, 7 days): 52 U/L
AST ([1]; Female NHP, 0.05 mg/kg, 14 days): 20 U/L
AST ([1]; Female NHP, 0.05 mg/kg, Pre-dose): 33 U/L
AST ([1]; Female NHP, 0.5 mg/kg, 2 days): 294 U/L
AST ([1]; Female NHP, 0.5 mg/kg, 4 days): 63 U/L
AST ([1]; Female NHP, 0.5 mg/kg, 7 days): 68 U/L
AST ([1]; Female NHP, 0.5 mg/kg, 14 days): 67 U/L
AST ([1]; Female NHP, 0.5 mg/kg, Pre-dose): 47 U/L
AST ([1]; Male NHP, 0.005 mg/kg, 2 days): 70 U/L
AST ([1]; Male NHP, 0.005 mg/kg, 4 days): 39 U/L
AST ([1]; Male NHP, 0.005 mg/kg, 7 days): 28 U/L
AST ([1]; Male NHP, 0.005 mg/kg, 14 days): 39 U/L
AST ([1]; Male NHP, 0.005 mg/kg, Pre-dose): 35 U/L
AST ([1]; Male NHP, 0.05 mg/kg, 2 days): 95 U/L
AST ([1]; Male NHP, 0.05 mg/kg, 4 days): 69 U/L
AST ([1]; Male NHP, 0.05 mg/kg, 7 days): 62 U/L
AST ([1]; Male NHP, 0.05 mg/kg, 14 days): 59 U/L
AST ([1]; Male NHP, 0.05 mg/kg, Pre-dose): 99 U/L
AST ([1]; Male NHP, 0.5 mg/kg, 2 days): 196 U/L
AST ([1]; Male NHP, 0.5 mg/kg, 4 days): 67 U/L
AST ([1]; Male NHP, 0.5 mg/kg, 7 days): 53 U/L
AST ([1]; Male NHP, 0.5 mg/kg, 14 days): 47 U/L
AST ([1]; Male NHP, 0.5 mg/kg, Pre-dose): 32 U/L
G-CSF (human G-CSF): 85.6 pg/mL
half-life (HEK293): 8 to 10 h
